From patent US20130023004A1 (WASHINGTON UNIVERSITY, published 2013)

What was measured:
plasma ADAMTS13 (human) = plasma ADAMTS13 (human) (UniProt Q76LX8); experiment: cell-based or functional assay
FRETS-rVWF71 = target: T1, FRETS-rVWF71
T1 chain: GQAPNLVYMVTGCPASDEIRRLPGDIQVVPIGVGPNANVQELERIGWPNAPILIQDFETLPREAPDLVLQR

plasma ADAMTS13 = target: T2, plasma ADAMTS13 (human, UniProt Q76LX8 75-1427); experiment: Michaelis-Menten kinetics of substrate cleavage by plasma ADAMTS13 (fluorescence)
T2 construct: Not purified; enzyme source was plasma (about 6 nM ADAMTS13 in PNP by a literature value); also called ADAMTS13 in PNP (pooled normal plasma)
T2 sequence (looked up): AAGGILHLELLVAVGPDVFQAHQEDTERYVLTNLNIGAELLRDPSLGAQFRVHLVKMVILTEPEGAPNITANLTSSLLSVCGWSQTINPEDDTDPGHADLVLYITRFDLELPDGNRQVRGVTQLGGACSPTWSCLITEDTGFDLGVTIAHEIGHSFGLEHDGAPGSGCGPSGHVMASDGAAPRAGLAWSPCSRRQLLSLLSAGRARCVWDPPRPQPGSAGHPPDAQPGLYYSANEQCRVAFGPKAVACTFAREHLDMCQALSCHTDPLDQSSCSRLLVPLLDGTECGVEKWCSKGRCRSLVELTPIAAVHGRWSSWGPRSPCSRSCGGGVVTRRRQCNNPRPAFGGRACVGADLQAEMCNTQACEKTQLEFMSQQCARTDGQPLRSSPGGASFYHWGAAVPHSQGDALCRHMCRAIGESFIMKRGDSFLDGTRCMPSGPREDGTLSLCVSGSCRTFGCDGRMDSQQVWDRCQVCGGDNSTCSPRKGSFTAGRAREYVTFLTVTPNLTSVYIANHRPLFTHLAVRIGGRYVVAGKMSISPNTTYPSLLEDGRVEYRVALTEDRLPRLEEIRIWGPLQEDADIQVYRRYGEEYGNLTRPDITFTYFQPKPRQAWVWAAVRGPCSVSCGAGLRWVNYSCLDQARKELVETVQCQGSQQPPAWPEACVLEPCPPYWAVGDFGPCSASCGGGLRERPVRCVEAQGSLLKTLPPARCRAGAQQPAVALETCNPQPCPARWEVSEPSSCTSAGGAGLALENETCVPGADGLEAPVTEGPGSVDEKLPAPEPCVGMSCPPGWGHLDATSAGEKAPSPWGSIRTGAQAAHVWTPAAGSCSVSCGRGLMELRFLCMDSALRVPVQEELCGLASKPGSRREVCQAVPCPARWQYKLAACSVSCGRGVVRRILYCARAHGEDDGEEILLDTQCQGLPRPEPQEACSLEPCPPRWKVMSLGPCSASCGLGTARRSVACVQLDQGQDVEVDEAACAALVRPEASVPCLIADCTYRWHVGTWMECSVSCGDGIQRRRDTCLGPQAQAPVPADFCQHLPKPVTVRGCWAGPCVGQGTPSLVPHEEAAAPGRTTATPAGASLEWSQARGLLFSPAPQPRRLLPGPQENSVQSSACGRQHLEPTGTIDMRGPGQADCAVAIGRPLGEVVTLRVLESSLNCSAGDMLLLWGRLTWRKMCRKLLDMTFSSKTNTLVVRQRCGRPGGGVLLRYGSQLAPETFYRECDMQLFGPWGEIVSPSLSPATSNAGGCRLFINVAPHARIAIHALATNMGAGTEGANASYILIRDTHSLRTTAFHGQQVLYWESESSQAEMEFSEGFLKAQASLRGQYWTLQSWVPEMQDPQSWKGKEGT
Protocol: In these experiments, FRETS-rVWF71 cleavage by plasma ADAMTS13 (50 μL) was assessed in 200 μL reactions containing 50 mM HEPES, pH 7.4, 10 mM CaCl₂, 150 mM NaCl, and 0.05% Tween-20, and varying concentrations of FRETS-rVWF71. The concentration of ADAMTS13 in PNP is ˜1.03 μg/ml (Feys, H. B., et al. J. Thromb. Haemost 4:955-62, 2006), or ˜6 nM for a molecular mass of 170 kDa. For each concentration of substrate, the relationship between product fluorescence and concentration was determined directly by cleaving FRETS-rVWF71 to completion with excess recombinant ADAMTS13 MDTCS (Feys, H. B., et al. J. Thromb. Haemost. 7:2088-95, 2009) and measuring the fluorescence. Control assays contained plasma that was completely deficient in ADAMTS13. The initial velocities (nM/min) as a function of substrate concentration were fitted to the Michealis-Menten equation by nonlinear regression analysis (Prism, GraphPad).

For “Hemoglobin (from UniProt P69905 2-142; P68871 2-147)”, the IC50 of inhibition of ADAMTS13 activity (FRETS-rVWF71 cleavage) (plasma ADAMTS13 (human)) was 10 to 15 mg/mL.

B1: recombinant ADAMTS13 MDTCS (protein)
chain: AAGGILHLELLVAVGPDVFQAHQEDTERYVLTNLNIGAELLRDPSLGAQFRVHLVKMVILTEPEGAPNITANLTSSLLSVCGWSQTINPEDDTDPGHADLVLYITRFDLELPDGNRQVRGVTQLGGACSPTWSCLITEDTGFDLGVTIAHEIGHSFGLEHDGAPGSGCGPSGHVMASDGAAPRAGLAWSPCSRRQLLSLLSAGRARCVWDPPRPQPGSAGHPPDAQPGLYYSANEQCRVAFGPKAVACTFAREHLDMCQALSCHTDPLDQSSCSRLLVPLLDGTECGVEKWCSKGRCRSLVELTPIAAVHGRWSSWGPRSPCSRSCGGGVVTRRRQCNNPRPAFGGRACVGADLQAEMCNTQACEKTQLEFMSQQCARTDGQPLRSSPGGASFYHWGAAVPHSQGDALCRHMCRAIGESFIMKRGDSFLDGTRCMPSGPREDGTLSLCVSGSCRTFGCDGRMDSQQVWDRCQVCGGDNSTCSPRKGSFTAGRAREYVTFLTVTPNLTSVYIANHRPLFTHLAVRIGGRYVVAGKMSISPNTTYPSLLEDGRVEYRVALTEDRLPRLEEIRIWGPLQEDADIQVYRRYGEEYGNLTRPDITFTYFQPKPRQA
B1 was tested, and the “cleavage of the substrate (fluorescence)” value (FRETS-rVWF71) was “cleaving FRETS-rVWF71 to completion with excess recombinant ADAMTS13 MDTCS”.

B2: FRETS-rVWF71 (peptide)
peptide: T1 chain
modifications: Cys1610 modified with DyLight 633 (maleimide); N-terminal Gly modified with IRDye QC-1 (N-hydroxysuccinimidyl ester)
notes: Fluorogenic substrate; Recombinant peptide rVWF71 (extra N-terminal Gly = E1598G, N1610C, K1617R) labelled with fluorophore and quencher; also called VWF-rFRETS71; doubly-labeled substrate
B2: binds (plasma ADAMTS13).

B3: plasma ADAMTS13 (protein)
chain: T2 sequence (looked up)
B3 was tested, and the Km (FRETS-rVWF71) was “Km of 1.8 µM” and the kcat (FRETS-rVWF71) was “kcat of 6.8 min^-1 at 30 °C”.
